Legend:
Assay in all cases: cell-based or functional assay
[1] = biological target: HIV-1 Env of isolate MGRM-F1-016 (pseudovirus) (HIV-1)
[2] = biological target: HIV-1 Env of isolate MGRM-AE-008 (pseudovirus) (HIV-1)
[3] = biological target: HIV-1 92TH021 envelope protein (Env) on pseudovirus (HIV-1)
[4] = biological target: HIV-1 envelope glycoprotein (Env) of isolate 92WR009, subtype A (HIV-1)
[5] = biological target: HIV-1 JR-CSF Env I420A (HIV-1 (isolate JR-CSF)) (UniProt P20871)
[6] = biological target: HIV-1 CMU02 envelope protein (Env) on pseudovirus (HIV-1)
[7] = biological target: HIV-1 envelope glycoprotein (Env) of isolate APV_17, on pseudovirus (HIV-1)
[8] = biological target: HIV-1 92TH021 Env (pseudovirus) (HIV-1)
[9] = biological target: HIV-1 envelope glycoprotein (Env) of isolate 94UG103, subtype A (HIV-1)
[10] = biological target: HIV-1 Env of isolate MGRM-F1-023 (pseudovirus) (HIV-1)
[11] = biological target: HIV-1 envelope glycoprotein (Env) of isolate MGRM-Chronic-B-023, on pseudovirus (HIV-1)
[12] = biological target: HIV-1 JR-CSF Env T413A (HIV-1 (isolate JR-CSF)) (UniProt P20871)
[13] = biological target: HIV-1 envelope glycoprotein (Env) of isolate MGRM-Chronic-B-024, on pseudovirus (HIV-1)
[14] = biological target: HIV-1 Env of isolate MGRM-F1-004 (HIV-1)
[15] = biological target: HIV-1 Env of isolate MGRM-D-016 (pseudovirus) (HIV-1)
[16] = biological target: HIV-1 Env of isolate MGRM-AE-002 (subtype AE) (HIV-1)
[17] = biological target: HIV-1 Env of pseudovirus isolate MGRM-C-009 (clade C) (HIV-1)
[18] = biological target: HIV-1 Env of pseudovirus isolate MGRM-C-014 (clade C) (HIV-1)
[19] = biological target: HIV-1 Env of isolate MGRM-A-009 (subtype A) (HIV-1)
[20] = biological target: HIV-1 Env of isolate MGRM-Chronic-B-008 (HIV-1)
[21] = biological target: HIV-1 Env of isolate MGRM-A-004 (pseudovirus) (HIV-1)
[22] = biological target: HIV-1 Env of isolate 92UG005 (pseudovirus) (HIV-1)
[23] = biological target: HIV-1 Env of isolate MGRM-G-015 (subtype G) (HIV-1)

Row | Substance | IC50 (µg/mL), pseudovirus neutralization [1] | IC50 (µg/mL), pseudovirus neutralization [2] | IC50 (ug/mL), pseudovirus neutralization [3] | IC50, pseudovirus neutralization [4] | Fold IC50 increase relative to wild-type (pseudovirus neutralization) [5] | IC50 (ug/mL), pseudovirus neutralization [6] | IC50, pseudovirus neutralization [7] | IC50, pseudovirus neutralization [9] | IC50 (µg/mL), pseudovirus neutralization [10] | IC50, pseudovirus neutralization [11] | Fold IC50 increase relative to wild-type (pseudovirus neutralization) [12] | IC50 (µg/mL), pseudovirus neutralization [14] | IC50 (µg/mL), pseudovirus neutralization [15] | IC50, pseudovirus neutralization [16] | IC50, pseudovirus neutralization [17] | IC50, pseudovirus neutralization [18] | IC50, pseudovirus neutralization [19] | IC50 (µg/mL), pseudovirus neutralization [20] | IC50 (µg/mL), pseudovirus neutralization [21] | IC50 (µg/mL), pseudovirus neutralization [22] | further results
1 | 5123_A06 (PGT-125) (antibody) | > 50 µg/mL | > 50 µg/mL | 0.0066 µg/mL | 0.144 µg/mL | 1.1 fold | > 10 µg/mL | 8.06 µg/mL | 0.008 µg/mL | 0.12 µg/mL | > 50 µg/mL | 0.5 fold | – | – | – | – | – | – | – | – | – | Neutralization by PGT-125, IC50 [8]: 0.0066 µg/mL; Neutralization by PGT-125, IC80 [8]: 0.0292 µg/mL; Neutralization by PGT-125, IC90 [8]: 0.0701 µg/mL; Neutralization by PGT-125, IC95 [8]: 0.157 µg/mL; IC50, pseudovirus neutralization [13]: > 50 µg/mL
2 | 5136_H01 (PGT-131) (antibody) | – | – | – | – | 153 fold | – | – | – | – | – | 0.6 fold | 0.114 µg/mL | > 50 µg/mL | > 50 µg/mL | > 50 µg/mL | > 50 µg/mL | 0.035 µg/mL | > 50 µg/mL | > 50 µg/mL | 0.854 µg/mL | –
3 | 5141_B17 (PGT-126) (antibody) | > 50 µg/mL | > 50 µg/mL | 0.115 µg/mL | > 50 µg/mL | 0.6 fold | > 10 µg/mL | 0.353 µg/mL | 0.008 µg/mL | 0.009 µg/mL | > 50 µg/mL | 0.7 fold | – | – | – | – | – | – | – | – | – | IC50, pseudovirus neutralization [13]: > 50 µg/mL
4 | 5145_B14 (PGT-127) (antibody) | > 50 µg/mL | > 50 µg/mL | – | > 50 µg/mL | 1.8 fold | – | 10.4 µg/mL | 0.017 µg/mL | 0.119 µg/mL | > 50 µg/mL | 0.8 fold | – | – | – | – | – | – | – | – | – | IC50, pseudovirus neutralization [13]: > 50 µg/mL
5 | 5147_N06 (PGT-130) (antibody) | – | – | 0.0082 µg/mL | – | 9.8 fold | > 10 µg/mL | – | – | – | – | 0.6 fold | 0.023 µg/mL | > 50 µg/mL | 1.53 µg/mL | > 50 µg/mL | > 50 µg/mL | 0.308 µg/mL | 5.18 µg/mL | > 50 µg/mL | 0.959 µg/mL | –
6 | 5329_C19 (PGT-136) (antibody) | – | – | > 10 µg/mL | – | – | > 10 µg/mL | – | – | – | – | – | > 50 µg/mL | > 50 µg/mL | > 50 µg/mL | > 50 µg/mL | > 50 µg/mL | > 50 µg/mL | > 50 µg/mL | > 50 µg/mL | > 50 µg/mL | –
7 | 5343_B08 (PGT-135) (antibody) | – | – | > 10 µg/mL | – | 1.4 fold | > 10 µg/mL | – | – | – | – | 0.3 fold | 0.211 µg/mL | > 50 µg/mL | > 50 µg/mL | > 50 µg/mL | > 50 µg/mL | > 50 µg/mL | > 50 µg/mL | > 50 µg/mL | > 50 µg/mL | –
8 | 5345_I01 (PGT-137) (antibody) | – | – | – | – | – | – | – | – | – | – | – | 40.3 µg/mL | > 50 µg/mL | > 50 µg/mL | > 50 µg/mL | > 50 µg/mL | > 50 µg/mL | > 50 µg/mL | > 50 µg/mL | > 50 µg/mL | –
9 | PGV04 (antibody) | – | 1.51 µg/mL | – | – | – | – | – | – | – | – | – | – | – | – | – | – | – | – | – | – | IC50 (µg/mL), pseudovirus neutralization [23]: 0.333 µg/mL

From US20240132578A1
